Source: paper PMC5959072, “Biochemical characterization of RecBCD enzyme from an Antarctic Pseudomonas species and identification of its cognate Chi (χ) sequence” (PLoS ONE, 2018)

System: Nc1ncnc2c1ncn2[C@@H]1O[C@H](COP(=O)(O)OP(=O)(O)OP(=O)(O)O)[C@@H](O)[C@H]1O
Assay: purified protein
Conditions: 22 °C, pH 7.5, 1 mM Mg acetate, NdeI-linearized pBR322 dsDNA, ATP sites in RecB and RecD
Source text: TLC ATPase assay with [γ-32P]ATP tracer on RecBCD^Ps (RecBCD enzyme of Pseudomonas syringae Lz4W)

Substance: RecBCD^Ps (RecBCD enzyme of Pseudomonas syringae Lz4W) (Pseudomonas syringae)
- Km: 57.8 ± 10.1 µM
- kcat: 245 s⁻¹
